Measurements taken from patent US20140079691A1 (ANAPTYSBIO, published 2014).

Experiments:
[1] = target: T1, MS2 bacteriophage coat protein (MS2 bacteriophage, UniProt P03612 2-130); assay: SPR (Biacore), FIG. 2D
T1 sequence: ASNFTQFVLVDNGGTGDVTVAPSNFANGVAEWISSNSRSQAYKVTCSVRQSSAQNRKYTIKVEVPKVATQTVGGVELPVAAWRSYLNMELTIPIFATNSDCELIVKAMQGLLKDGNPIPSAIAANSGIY

[2] = target: T1, MS2 bacteriophage coat protein; assay: SPR (Biacore T200), MS2 immobilised on CM5 chip, scFv in solution
Description: (§1) Binding affinity measurements for the antibody variants were obtained by surface immobilization of antigen. Specifically, kinetic analysis was performed using a Biacore T200 (GE Healthcare, Waukesha, Wis.). […] For full-length IgGs, a capture assay was used to allow accurate assessment of antibody affinity. […] Surfaces were regenerated using 3 M MgCl₂. Association and dissociation kinetic values (kₐ and kd) were determined from a best fit of the data with the 1:1 Langmuir global fitting procedure to sensorgrams using the Biacore T200 Evaluation Software, version 1.0.

[3] = target: T1, MS2 bacteriophage coat protein; assay: SPR (Biacore), FIG. 2C
[4] = target: T1, MS2 bacteriophage coat protein; assay: SPR (Biacore T200), IgG captured on anti-human IgG Fc, MS2 antigen flowed over
Description: as §1

[5] = target: T1, MS2 bacteriophage coat protein; assay: SPR (Biacore), FIG. 7C
[6] = target: T1, MS2 bacteriophage coat protein; assay: SPR (Biacore), FIG. 3D
[7] = target: T1, MS2 bacteriophage coat protein; assay: SPR (Biacore)

B1: mouse anti-MS2 scFv (scFv)
scFv: EVKLVESGGGLVKPGGSLKLSCAASGFTFSSYAMSWVRQTPEKRLEWVATISTGGGYTYFPDSVKGRFTISRDNAKNALYLQMKSLRSEDTAMYYCARQGDFGDWYFDVWGAGTTVTVSSGGGGSGGGGSGGGGSDVLMTQTPLSLPVSLGDQASISCRSSQSLVHSNGNTYLHWYLQKPGQSPKLLIYKVSNRFSGVPDRFSGSGSGTDFTLKISRVEAEDLGVYFCSQSTHVPWTFGGGTKLEIK
[1]
  koff: 0.008 s⁻¹
  kon: 280000 M⁻¹ s⁻¹
[2]
  Kd: 29 nM

B2: APE443 (antibody, V domains shown)
VH: EVQLLESGGGLVQPGGSLRLSCAASGFTFSSYAMSWVRQAPGKGLEWVSTISTGGGYTYFPDSVKGRFTISRDNSKNTLYLQMNSLRAEDTAVYYCARQGDFGDWYFDVWGAGTTVTVSS
VL: DVVMTQSPLSLPVTLGQPASISCRSSQSLVHSNGNTYLHWFQQRPGQSPRRLIYKVSNRFSGVPDRFSGSGSGTDFTLKISRVEAEDVGVYYCSQSTHVPWTFGGGTKLEIK
notes: also called initial CDR-grafted antibody; initial grafted antibody
[3]
  Kd: 170 nM
  koff: 0.011 s⁻¹
  kon: 68000 M⁻¹ s⁻¹
[4]
  Kd: 84 nM

B3: APE1027 (antibody, V domains shown)
VH: EVQLVESGGGLVQPGGSLILSCVASGFTFSSYAMSWVRQAPGKGLEWVCTISTGGGYTYSPDSVKGRFTCSRDNSKNTLYLQMNSLRAEDTAVYYCARQGDFGDWYFDVWGAGTTVTVSS
VL: DVVLTQSPLSLAVLLGQPASISCRSSESLVHTNGNTYLHWYQQRPGQSPRLLIYKVSNRFSGVPDRFSGSGSGTDFTLKISRVEAEDVGVYFCSQSTRVPWTFGGGTKLEIK
[5]
  koff: 8.5e-05 s⁻¹
  kon: 97000 M⁻¹ s⁻¹
[4]
  Kd: 0.88 nM

B4: APE1051 (antibody, V domains shown)
VH: EVQLLESGGGLVQPGGSLRLSCVASGFTFSSYAMSWVRQAPGKGLEWVSTISTGGGYTYFPDSVKGRFTISRDNSKNTLYLQMNSLRAEDTAVYYCARQGDFGDWYFDVWGAGTTVTVSS
VL: DVVMTQSPLSLPVTLGQPASISCRSSQSLVHSNGNTYLHWYQQRPGQSPRLLIYKVSNRFSGVPDRFSGSGSGTDFTLKISRVEAEDVGVYFCSQSTHVPWTFGGGTKLEIK
[4]
  Kd: 15.1 nM

B5: APE556 (antibody, V domains shown)
VH: EVQLLESGGGLVQPGGSLRLSCAASGFTFSSYAMSWVRQAPGKGLEWVSTISTGGGYTYFPDSVKGRFTISRDNSKNTLYLQMNSLRAEDTAVYYCARQGDFGDWYFDVWGAGTTVTVSS
VL: DVVMTQSPLSLPVTLGQPASISCRSSQSLVHSNGNTYLHWYQQRPGQSPRLLIYKVSNRFSGVPDRFSGSGSGTDFTLKISRVEAEDVGVYFCSQSTHVPWTFGGGTKLEIK
[4]
  Kd: 27 nM
[6]
  koff: 0.0055 s⁻¹
  kon: 210000 M⁻¹ s⁻¹

B6: APE565 (antibody, V domains shown)
VH: EVQLLESGGGLVQPGGSLRLSCAASGFTFSSYAMSWVRQAPGKGLEWVCTISTGGGYTYFPDSVKGRFTCSRDNSKNTLYLQMNSLRAEDTAVYYCARQGDFGDWYFDVWGAGTTVTVSS
VL: DVVMTQSPLSLPVTLGQPASISCRSSQSLVHSNGNTYLHWYQQRPGQSPRLLIYKVSNRFSGVPDRFSGSGSGTDFTLKISRVEAEDVGVYFCSQSTHVPWTFGGGTKLEIK
[7]
  fold improvement in KD over APE556: 4 fold
[4]
  Kd: 7 nM

B7: APE1052 (antibody, V domains shown)
VH: EVQLLESGGGLVQPGGSLRLSCAASGFTFSSYAMSWVRQAPGKGLEWVSTISTGGGYTYFPDSVKGRFTISRDNSKNTLYLQMNSLRAEDTAVYYCARQGDFGDWYFDVWGAGTTVTVSS
VL: DVVMTQSPLSLPVTLGQPASISCRSSESLVHTNGNTYLHWYQQRPGQSPRLLIYKVSNRFSGVPDRFSGSGSGTDFTLKISRVEAEDVGVYFCSQSTRVPWTFGGGTKLEIK
[7]
  fold improvement in KD over the initial grafted antibody (APE443): 20 fold
[4]
  Kd: 4.2 nM

B8: APE830 (antibody, V domains shown)
VH: EVQLLESGGGLVQPGGSLRLSCVASGFTFSSYAMSWVRQAPGKGLEWVSTISTGGGYTYFPDSVKGRFTISRDNSKNTLYLQMNSLRAEDTAVYYCARQGDFGDWYFDVWGAGTTVTVSS
VL: DVVMTQSPLSLPVTLGQPASISCRSSESLVHTNGNTYLHWYQQRPGQSPRLLIYKVSNRFSGVPDRFSGSGSGTDFTLKISRVEAEDVGVYFCSQSTRVPWTFGGGTKLEIK
[4]
  Kd: 1.6 nM

B9: APE850 (antibody, V domains shown)
VH: EVQLLESGGGLVQPGGSLRLSCVASGFTFSSYAMSWVRQAPGKGLEWVSTISTGGGYTYSPDSVKGRFTISRDNSKNTLYLQMNSLRAEDTAVYYCARQGDFGDWYFDVWGAGTTVTVSS
VL: DVVMTQSPLSLPVTLGQPASISCRSSESLVHTNGNTYLHWYQQRPGQSPRLLIYKVSNRFSGVPDRFSGSGSGTDFTLKISRVEAEDVGVYFCSQSTRVPWTFGGGTKLEIK
[7]
  fold improvement in KD over the initial grafted antibody (APE443): 85 fold
  fold improvement in ka over the initial grafted antibody (APE443): 12 fold
  fold improvement in kd over the initial grafted antibody (APE443): 7 fold
[4]
  Kd: 0.985 nM

B10: APE849 (antibody, V domains shown)
VH: EVQLLESGGGLVQPGGSLRLSCAASGFTFSSYAMSWVRQAPGKGLEWVSTISTGGGYTYSPDSVKGRFTISRDNSKNTLYLQMNSLRAEDTAVYYCARQGDFGDWYFDVWGAGTTVTVSS
VL: DVVMTQSPLSLPVTLGQPASISCRSSESLVHTNGNTYLHWYQQRPGQSPRLLIYKVSNRFSGVPDRFSGSGSGTDFTLKISRVEAEDVGVYFCSQSTRVPWTFGGGTKLEIK
[7]
  fold improvement in affinity (reference not given): 40 fold
[4]
  Kd: 2 nM
